Experimental data published in patent EP2138508A1 (Helmholtz-Zentrum für Infektionsforschung GmbH, dated 2009).

How the values were obtained:
[1] = target: Met receptor on MDCK cells (UniProt Q75ZY9 25-1382); assay: cell-based or functional assay
[2] = target: Met receptor on MK keratinocytes (mouse, UniProt P16056 25-1379); assay: cell-based or functional assay

B1: InIB321_Crys (InIB321 G206C A227C C242A, "crystal dimer") (ligand)
chain: ETITVPTPIKQIFSDDAFAETIKDNLKKKSVTDAVTQNELNSIDQIIANNSDIKSVQGIQYLPNVTKLFLNGNKLTDIKPLANLKNLGWLFLDENKVKDLSSLKDLKKLKSLSLEHNGISDINGLVHLPQLESLYLGNNKITDITVLSRLTKLDTLSLEDNQISDIVPLACLTKLQNLYLSKNHISDLRALCGLKNLDVLELFSQEALNKPINHQSNLVVPNTVKNTDGSLVTPEIISDDGDYEKPNVKWHLPEFTNEVSFIFYQPVTIGKAKARFHGRVTQPLKE
modifications: two intermolecular disulfides: Cys 206 of chain A with Cys 227 of chain B and vice versa
cell scattering of MDCK cells, potency relative to HGF and InIBfl [1]: ~2 orders of magnitude
stimulation of DNA synthesis in MK keratinocytes, activity relative to full-length InIB [2]: ~10 fold
